Reference: the DeepSol protein solubility set

Assay: soluble on expression in E. coli; label from the status in PepcDB or PDB records

Row | Sequence | soluble on expression in E. coli
1 | MSAEKSSADTAKKTLTIYSTMSTDSERDTFRKLAAAFEKEHSDIHVSLHFPGNDYENMMRVRMAANDLPDLFDTHGWGKIRYGEYTADLRDMKWTQDLDPNLNSILKNKSGKVYAYPINQAKDGLAYNRNILDRYGIAPPETMDDFIKALRTIKEKSKGSIVPFWFAGYDKSSFAQYYDQFATPLLITDPAHNEKKQLINGTFQWSKFTYLSEILKQMQKEKLINIDAVTAKKSQLIELMAQNKIAFTMQGGTLGQDVAQINPNVKVGIIPTPAIHPGDDPIWIGGERYTLAAWKDSPQLKEAKDFIAFMARPANAKQMAEATSLPSGLTNVKADIFYANDYEYYQDVKVEPYFDRLYLPNGMWDVLGTVGQELAADILAPQDISQKLGREYKRLREQSETQGAENNELEHHHHHH | soluble
2 | MDLISGEADPSESRAAERPGTAPLQGLVTFNRLELNRILNLYGRMVAAGEWRDYAIDFLKDTAVFSIFRRASEVPIYRIVKDPRLARKQGAYSVIGASGQILRRGHELERVLLVIDRKLALV | not soluble
3 | MTPDHLLMLVALATFQKGIVPPTPAMELVMQVGACYHALTDAPRMGKLRLFLGKKPMAKLEQFLTEIENETDADF | not soluble
4 | MGSDKIHHHHHHMMFVHIADNHLGYRQYNLDDREKDIYDSFKLCIKKILEIKPDVVLHSGDLFNDLRPPVKALRIAMQAFKKLHENNIKVYIVAGNHEMPRRLGEESPLALLKDYVKILDGKDVINVNGEEIFICGTYYHKKSKREEMLDKLKNFESEAKNYKKKILMLHQGINPYIPLDYELEHFDLPKFSYYALGHIHKRILERFNDGILAYSGSTEIIYRNEYEDYKKEGKGFYLVDFSGNDLDISDIEKIDIECREFVEVNIKDKKSFNEAVNKIERCKNKPVVFGKIKREFKPWFDTLKDKILINKAIIVDDEFIDMPDNVDIESLNIKELLVDYANRQGIDGDLVLSLYKALLNNENWKELLDEYYNTKFRG | not soluble
5 | MIAEFESRILALIDGMVDHASDDELFASGYLRGHLTLAIAELESGDDHSAQAVHTTVSQSLEKAIGAGELSPRDQALVTDMWENLFQQASQL | not soluble
6 | MSLRQKQKEGGTYSPQDAEIIDTKLKLDQLITVADLELKDERLTRMTVMAATEKFQIMKKELPKFLQDLSSTDADLPWNRAKNRFPNIKPYNNNRVKLIADASVPGSDYINASYISGYLCPNEFIATQGPLPGTVGDFWRMVWETRAKTLVMLTQCFEKGRIRCHQYWPEDNKPVTVFGDIVITKLMEDVQIDWTIRDLKIERHGDCMTVRQCNFTAWPEHGVPENSAPLIHFVKLVRASRAHDTTPMIVHCSAGVGRTGVFIALDHLTQHINDHDFVDIYGLVAELRSERMCMVQNLAQYIFLHQCILDLLSNKGSNQPICFVNYSEGHHHHHH | soluble
7 | SDPRGTKRGAEKTEVAEPRNKLPRPAPSLPTDPALYSGPFPFYRRPSELGCFSLDAQRQYHGDARALRYYSPPPTNGPGPNFDLRDGYPDRYQPRDEEVQERLDHLLCWLLEHRGRLEGGPGWLAEAIVTWRGHLTKLLTTPYERQEGWQLAASRFQGTLYLSEVETPNARAQRLARPPLLRELMYMGYKFEQYMCAGELPLLHSPLPLPRG | soluble
8 | MGTMRIAFQGTAGAYSEEALLKVFPEAKPVGFPTFHQVFEAVEAGEAELGVVPVENTTAGSINQTYDLLLESDLHVVGEIVHRVEHCLLAPKGTTLKDLHAVKSHPQALAQCDGFLARMRLTPIPVFDTAGAAKELAEHPEPGLAAIASRRAAELYGLEVLAENIEDYPHNYTRFFVIGHKEPPRGQGPYKTSIVFAVRHRPGGLLEALSVFAEAGVNLTKLESRPRRDKPFSYLFYLDLEGHLEDPGPAQALLRLLRRVAFLKVLGSYPAHANGGVSAP | soluble
9 | MGSDKIHHHHHHMAPLLFRQILDLEAEAIQRAAERADAEAFANATQLIANCSGKVVLSGVGKSGIIARKITATLLSIGTLSAFLHPCDALHGDLGIVTEQDVVVMLSNSGETDELLAMLPHLQRRQVPIIAIVGNMRSTLARVAAAVLDASVDREACPLNLAPTASTTVALAIGDALAAQVMDYRSVTSEQFAFNHPAGRLGKRLTLKVVDVMHQGEELPLLPPEARFVEVVTAISRGGLGAVPIVEADGRLLGLITDGDLRRLLEQTSPAKLDQITAAEFMTPQPIAVEGDLLAYDALHLMENRPSQISVLPVVDAAQRCLGLVRIHDLIRSGI | not soluble
10 | MGSDKIHHHHHHMPGFSADLDCVPGSIRSQVEENYRVWRRAWITSSAQPAVNSSGRALRLQPRHTAQRRTASESGADAGGELNGITIPTTATTRYAERRGISIVRTYADEGKSGLRIDGRRALQQLIKDVEGGTADFQIILVYDVSRWGRFQDADESAYYECICRRAGIQVAYCAEQFENDGSPVSTIVKGVKRAMAREYSRELSAKVFAGQCRLIELGYRQGSPAGFGLRRVLIDQQGSSKGMLARGEQKSLQTDRVVLMPGPGDEIRIVHQIYRWFIDEGLGDSEIAMRLNSIRVRTDFDRYWTRATVHEVLTNEKYIGNNVYNRISFKLKKLRVVNTPDMWDQKGRRV | not soluble
11 | MAHHHHHHMPPKRYPNRLLVLCASINDVTAWPFWKFLQMKKIRGVTDMALLAFNSDGGSFEARIDGDKYQLKNYAKVRGYQHDMFESFVHRWHDPGRSYFVYGGHGMGDYVELEQNRVIAAGARARRRLRHACLRSSAL | not soluble
12 | AIASVAFVPDWLRGKAEVNQETIQRLLEENDQLIRCIVEYQNKGRGNECVQYQHVLHRNLIYLATIADASPTSTSKAME | soluble
13 | MANVLCNRARLVSYLPGFCSLVKRVVNPKAFSTAGSSGSDESHVAAAPPDICSRTVWPDETMGPFGPQDQRFQLPGNIGFDCHLNGTASQKKSLVHKTLPDVLAEPLSSERHEFVMAQYVNEFQGNDAPVEQEINSAETYFESARVECAIQTCPELLRKDFESLFPEVANGQTNDSDWLEHHHHHH | soluble
14 | MTQPDRGKDRAGRRTKRFLTPSEKYEIWLQLVRQEVTIAEAAEQQQVDRSTIMRIRTVAKEGALAALAASKPGVAAAQRDYEMEAAKAEIARLSEAVKQMAVKLTLVEGKGGWA | not soluble
15 | NLMKRCTRGFRKLGKCTTLEEEKCKTLYPRGQCTCSDSKMNTHSCDCKSC | soluble
16 | MAGDPMKNKSLLLAVAISATLLAGCKNGVNGNLIASSGMSTYKAATLSDADVKALSNNACKQMDSENQLAGSKSKYTKRLSKIAKALGNNIDGTPVSYKVYMTSDINAWAMANGCVRVYSGLMDLMTDNEIEGVLGHELGHVSLGHSRKAMQTAYATLAARDAISATSGVAAQLSQSQLGDLAEGVINSAFSRSQESDADDFSYDLLKKRGINTQGLVTAFDKFATMDAGHAKSLMDSHPASADRAQHMRDRIAEDKKLEHHHHHH | soluble
17 | MKRFNDFSKMKAFKDAQEHGKNRYKDVGCLDNNRVKLGGAWPHEYIHANYVSTPTNPKRFICTQAPLEKTCADFWFMCLQDRVETIFMLCNYKEKGAKKCHEYLPTEDNKDTMSFKEKGQKVTVKFESSKAIKFRDNSAAKVTKTVLTVEGAGCDKLKVNHYHWIDWPDRGVPTADNAILELLEKARVSKGPIAVHCSAGIGRTGSVVMLEYVMDQLLAGQIIEDTDKIIQKIREQRNNSVQTDHQYLFVHQVMMNFFEKRGLLDEATSAIHKDFTDQYSKCVL | not soluble
18 | MAHHHHHHMGRSFKVFLSNYVYRYGAAVWELRVCIERCAFPDYYAASPHDCAASSHYHAAYPPRSCSECGNHLSDPTELVSTSFRGRTGPAWLFSKVINVCEGQYEDRMMTTGQHTIVDIYCNNCRNNVGWKYEDSSEESQKYKKGKYILEKALLSFLVIDQHGKEHEFELKSSDCDF | not soluble
